Reference: publication PMC11362169, “Interdomain-linkers control conformational transitions in the SLC23 elevator transporter UraA” (Nature Communications, 2024)
Values belong to the molecule of their own block, whether it stands above or below them.

Assays:
uracil = test: scintillation proximity assay (homologous competition with 3H-uracil)
UraA = biological target: T1, UraA (Escherichia coli, UniProt P0AGM7); test: differential scanning fluorimetry (CPM dye); format: binding; details: 20 mM Hepes pH 7.5, 150 mM NaCl, 0.2% DM
T1 construct: full-length ORF, expressed in E. coli MC1061 from pBXC3GH (tag removed with HRV-3C protease), decylmaltoside-solubilized; C-terminal biotinylated AVI-tag for SPA; WT and G112P monomeric, P330G dimeric, G320P both fractions

[1] = biological target: T2, wild type UraA (E. coli uracil permease) (E. coli, UniProt P0AGM7); test: differential scanning fluorimetry; UraA variants 0.1 mg/mL in 20 mM Hepes pH 7.5, 150 mM NaCl, 0.2% DM, without uracil, in absence and presence of Sy45; CPM dye, 25 to 90 °C at 2 °C/min; details: both partners purified
T2 construct: uracil permease UraA, E. coli; open reading frame amplified from genomic DNA of E. coli MC1061; Membrane protein in 0.2% decylmaltoside; elutes as monomers and dimers; A few residues of the FX cloning sites and of the 3C site probably remain after cleavage (surmised); also called UraA(WT); source: E. coli MC1061 (pBXC3GH), purified (decylmaltoside-solubilised, Ni-NTA, eluted with HRV-3C protease, …)

- Kd (uracil; absence of Sy45): 35 nM
- Kd (uracil; presence of Sy45 (panel titled UraA(G320P)-Sy45)): 144 nM
Molecule: wild type UraA (E. coli uracil permease) (from UniProt P0AGM7) G320P

- Kd (uracil; absence of Sy45): 7 nM
Molecule: wild type UraA (E. coli uracil permease) (from UniProt P0AGM7) P330G

Molecule: O=c1cc[nH]c(=O)[nH]1 [uracil]
- Tm with 1 mM uracil (apo Tm 54.2 ± 0.2 °C) (UraA): 64.1 ± 0.1 °C

B1: sybody Sy45 (synthetic nanobody) (VHH)
VHH: QVQLVESGGGSVQAGGSLRLSCAASGNIAYIHYLGWFRQAPGKEREGVAALSTTLGNTYYADSVKGRFTVSLDNAKNTVYLQMNSLKPEDTALYYCAAAYFGYSSPLAHERYMYWGQGTQVTVSA
notes: sybody with a convex paratope, selected from a synthetic library against wild type UraA; also called synthetic single-domain antibody; conformational probe
- thermostabilization (increase of melting temperature) [1]: 16.7 °C
